Literature values, collected in paper PMC12669185.

Biological target: CCR2 (Homo sapiens) (UniProt P41597)
Sequence of UniProt P41597 (P41597 whole entry): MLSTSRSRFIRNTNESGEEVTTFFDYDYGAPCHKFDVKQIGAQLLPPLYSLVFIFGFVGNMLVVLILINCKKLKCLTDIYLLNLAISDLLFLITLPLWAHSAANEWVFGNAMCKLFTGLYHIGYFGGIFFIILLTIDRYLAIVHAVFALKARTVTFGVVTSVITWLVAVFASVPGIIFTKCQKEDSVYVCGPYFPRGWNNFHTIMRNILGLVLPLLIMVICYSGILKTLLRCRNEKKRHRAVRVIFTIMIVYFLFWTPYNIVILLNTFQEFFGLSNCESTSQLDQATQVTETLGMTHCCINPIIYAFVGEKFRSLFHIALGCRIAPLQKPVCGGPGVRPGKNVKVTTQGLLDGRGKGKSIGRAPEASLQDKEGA

CCL2 (from UniProt P13500)
Kd: 0.77 nM
